These results are taken from US20050182242A1, “Global analysis of protein activities using proteome chips” (priority 2001, published 2005).

Series [1] relates to PI(4,5)P2 liposomes. The experiment in a line: Yeast proteome chip probed with PI(4,5)P2 liposomes. The settings on record: liposome binding signal on yeast proteome chip, Cy3-streptavidin detection. An excerpt: (§1) To identify PI-binding proteins in yeast, liposomes were used as probes because the liposome provides the most relevant physiological condition to assay the interactors. Six types of liposomes were used. Each contains phosphatidylcholine (“PC”) with 1% (w/w) N-(biotinoyl)-1,2-dihexadecanoyl-sn-glycero-3-phosphoethanolamine, triethylammonium salt (biotin DHPE). The biotinylated lipid serves as a label that can be detected by Cy3-streptavidin (21). In addition to PC, the five other liposomes contain either 5% (w/w) PI(3)P, PI(4)P, PI(3,4)P2, PI(4,5)P2, or PI(3,4,5)P3 (FIG. 3A).
(§2) The protein-liposome interaction was assayed as follows. Appropriate amounts of each lipid in chloroform were mixed and dried under nitrogen. The lipid mixture was resuspended in TBS buffer by vortexing. The liposomes were created by sonication. Blocked proteome chips were washed three to five times in PBS buffer, and the extra liquid on the glass surface was removed by tapping the slides vertically on a KIMWIPE™. 200 μl of liposome solution was added to the proteome chip and immediately covered by a hydrophobic plastic cover slip (GRACE BIO-LAB™, USA). After trapped air bubbles were removed, the chip was incubated in a humidity chamber at RT for one hour. To remove the cover slip, the chip was immersed into large volume of PBS buffer (50 ml), so that the slip would float away. The chip was then moved to a second PBS bath (>50 ml) and washed 3×5 min with shaking at RT. After removing extra liquid on the surface of the chip, about 100 μl of Cy3 or Cy5 conjugated streptavidin (PIERCE™, USA; 1:2000 to 1:4000 dilution) was added to the surface and covered by a hydrophobic plastic cover slip (GRACE BIO-LABS™, USA). The chip was incubated for greater than 30 min in the dark at RT. The chip was then washed as described above. To completely remove the liquid on the chip, the chip was spun to dryness at 1500-2000 rpm for 5-10 min at RT.
(§3) • 1. S. Fields, Y. Kohara, D. J. Lockhart, Proc. Natl. Acad. Sci. 96, 8825 (1999); A. Goffeau et al., Science 274, 563 (1996). • 2 P. Ross-Macdonald et al., Nature 402, 413 (1999); J. L., DeRisi, V. R. Iyer, P. O. Brown, Science 278, 680 (1997); E. A. Winzeler et al., Science 285, 901 (1999). P. Uetz et al., Nature 403, 623 (2000); T. Ito et al., Proc. Natl. Acad. Sci. USA. 97, 1143 (2000) • 3 H. Zhu, M. Snyder, Curr. Opin. Chem. Biol. 5, 40 (2001). • 4 M. R. Martzen et al., Science 286, 1153 (1999). • 5 H. Zhu et al., Nat. Genet. 26, 283 (2000). • 6 G. MacBeath, S. L. Schreiber, Science 289, 1760 (2000). • 7 A. Caveman, J. Cell Sci. 113, 3543 (2000). • 8 P. Arenkov et al., Anal. Biochem 278, 123 (2000). • 9 D. A. Mitchell, T. K. Marshall, R. J. Deschenes, Yeast 9, 715 (1993). The expression vector pEGH was created by inserting an RGS-HisX6 epitope tag between the GST gene and the polycloning site of pEG(KG). The yeast ORFs were cloned using the strategy described previously (5), except every step was done in a 96-well format. Plasmid DNAs confirmed by DNA sequencing were reintroduced into both yeast (Y258) and E. coli (DH5a). […] 0.1 mM calcium was present in buffers in all subsequent steps. The chip was washed three times with PBS at RT. Cy3-conjugated streptavidin (Jackson IR, USA) (1:5000 dilution) was added to the chip and incubated for 30 min at RT. After extensive washing, the chip was spun dry and scanned using a microarray scanner; the data was subsequently acquired with the GENEPIX™ array densitometry software (Axon, USA). • 12 S. S. Hook, A. R. Means, Annu. Rev. Pharmacol. Toxicol.41, 471 (2001). • 13 M. S. Cyert, R. Kunisawa, D. Kaim, J. Thorner, Proc. Natl. Acad. Sci. USA 88, 7376 (1991). • 14 D. A. Stirling, K. A. Welch, M. J. Stark, EMBO J. 13, 4329 (1994). • 15 F. Bohl, Kruse, EMBO J. 19, 5514 (2000); E. Bertrand et al., Mol. Cell 2, 437 (1998). • 16 D. C. Winter, E. Y. Choe, R. Li, Proc. Nat. Acad Sci. USA 96, 7288 (1999). • 17 C.

Series [2] deals with six different liposomes. The experiment in a line: Reverse membrane assay: proteins spotted on nitrocellulose probed with six liposomes. The format is binding. The procedure:
B. A reverse assay was carried out to test for protein-lipid interactions. The proteins were prepared and spotted onto nitrocellulose filters in a dilution series and probed with the six different liposomes. As a control, the six liposomes were also added to the BSA-blocked membrane. After extensive washing, the bound liposomes were detected using an HRP-conjugated streptavidin and an ECL kit.
C. Linear correlation between the binding signals and the amounts of Rim15p in a membrane assay. When liposome-binding signals of Rim15p from the membrane assay (FIG. 4B) were plotted against the concentration gradient of the spotted Rim15p, the binding signals of PI(4)P, PI(3,4)P2, PI(3)P, and PI(4,5)P2 correlated linearly with the amounts of Rim15p.
Therefore, six proteins, i.e., Rim15p, Eno2p, Hxk1p, Sps1p, Yg1059wp, and Gcn2p, were further tested for phosphoinositol binding using two types of standard assays (Williamson, 2000, Nat. Struct Biol. 7(10):834-7). For Rim15p, Eno2p, and Hxk1p, PI(4,5)P2 liposomes were first adhered to a nitrocellulose membrane, which was then blocked by BSA; different amounts of the GST fusion proteins and a GST control were used to probe the membrane, and bound proteins were detected using anti-GST antibodies. […] We also carried out the reverse assay for four GST fusion proteins, Rim15p, Sps1p, Yg1059wp, and Gcn2p (Guerra et al., 2000, Biosci. Rep. 20: 41). Different amounts of these purified proteins were spotted onto nitrocellulose filters and probed with the six different liposomes (FIG. 5B). The bound liposomes were detected using a horseradish peroxidase (“HRP”)-conjugated streptavidin.

Series [3] deals with PI(3)P liposomes. Description: Yeast proteome chip probed with PI(3)P liposomes. The settings on record: liposome binding signal on yeast proteome chip, Cy3-streptavidin detection.
Text: as §1
The protein-liposome interaction was assayed as follows. Appropriate amounts of each lipid in chloroform were mixed and dried under nitrogen. The lipid mixture was resuspended in TBS buffer by vortexing. The liposomes were created by sonication. Blocked proteome chips were washed three to five times in PBS buffer, and the extra liquid on the glass surface was removed by tapping the slides vertically on a KIMWIPE™. 200 μl of liposome solution was added to the proteome chip and immediately covered by a hydrophobic plastic cover slip (GRACE BIO-LAB™, USA). After trapped air bubbles were removed, the chip was incubated in a humidity chamber at RT for one hour. To remove the cover slip, the chip was immersed into large volume of PBS buffer (50 ml), so that the slip would float away. […]

The subject of series [4] is PI(3,4,5)P3 liposomes. The experiment in a line: Yeast proteome chip probed with PI(3,4,5)P3 liposomes. The settings on record: liposome binding signal on yeast proteome chip, Cy3-streptavidin detection.
Text: as §1, §2, §3

Series [5] deals with PI(3,4)P2 liposomes. The experiment in a line: Yeast proteome chip probed with PI(3,4)P2 liposomes. The following applies: liposome binding signal on yeast proteome chip, Cy3-streptavidin detection.
Text: as §1, §2, §3

Turning to “RIM15: yeast protein kinase, regulator of glucose metabolism, GST-HisX6 fusion”, the “PI(4, 5)P2” value in series [1] is 687.19. For the same substance, the “liposome binding in reverse membrane assay” value in series [2] (HRP-conjugated streptavidin) is “bound strongest to PI(3)P and PI(4)P and PI(3,4)P2”. Moreover, the “affinity of PI(4)P relative to control PC” value in series [2] (membrane assay, signal vs amount of protein) is on record as “at least three-fold higher”. Moreover, the “PI(3)P” value in series [3] is 52.50. For the same substance, in series [4], the “PI(3, 4, 5)P3” value turned out to be 1219.28. In series [5], the “PI(3, 4)P2” value is 4941.00.
